# Measurements from publication PMC3002392.
# Target: Na+,K+-ATPase α-subunit (endogenous, MDCK cells) (dog (endogenous in MDCK)) (UniProt P50997)
# Experiment: co-IP
substance,measurement,value
"AS160 (endogenous, MDCK cells) (natural protein)",fold increase of co-precipitated AS160 with 40 uM Compound C against vehicle,7 fold
